What follows are substances tested against thrombin (assay: cell-based or functional assay).
In the case of “ATIII DG44 peak (1) fraction (recombinant human antithrombin III produced by the CHO/DG44 transformant pKAN-ATIII AFDG44, heparin-affinity peak (1)) (from UniProt P01008 33-464)”, the Secondary rate constant (+ hep): thrombin inhibition secondary rate constant in the presence of heparin is reported as 8.7e+06 M⁻¹ s⁻¹ and the Secondary rate constant (- hep): thrombin inhibition secondary rate constant in the absence of heparin is reported as 7700 M⁻¹ s⁻¹. Substance “ATIII DG44 peak (2) fraction (recombinant human antithrombin III produced by the CHO/DG44 transformant pKAN-ATIII AFDG44, heparin-affinity peak (2)) (from UniProt P01008 33-464)” has a Secondary rate constant (+ hep): thrombin inhibition secondary rate constant in the presence of heparin of 2e+07 M⁻¹ s⁻¹ and a Secondary rate constant (- hep): thrombin inhibition secondary rate constant in the absence of heparin of 8600 M⁻¹ s⁻¹. For “ATIII MS705 peak (2) fraction (recombinant human antithrombin III produced by the FUT8 gene-double-knockout CHO/DG44 transformant pKAN-ATIII AFMS705, heparin-affinity peak (2)) (from UniProt P01008 33-464)”, the Secondary rate constant (+ hep): thrombin inhibition secondary rate constant in the presence of heparin was 2.5e+07 M⁻¹ s⁻¹. For “ATIII MS705 peak (3) fraction (recombinant human antithrombin III produced by the FUT8 gene-double-knockout CHO/DG44 transformant pKAN-ATIII AFMS705, heparin-affinity peak (3)) (from UniProt P01008 33-464)”, the Secondary rate constant (+ hep): thrombin inhibition secondary rate constant in the presence of heparin was 2.6e+07 M⁻¹ s⁻¹ and the Secondary rate constant (- hep): thrombin inhibition secondary rate constant in the absence of heparin was 8800 M⁻¹ s⁻¹. For “Neuart (human plasma-derived antithrombin III preparation, manufactured by Mitsubishi Pharma Corporation) (from UniProt P01008 33-464)”, the Secondary rate constant (+ hep): thrombin inhibition secondary rate constant in the presence of heparin was 2.3e+07 M⁻¹ s⁻¹ and the Secondary rate constant (- hep): thrombin inhibition secondary rate constant in the absence of heparin was 8200 M⁻¹ s⁻¹.

Reference: patent EP1676860A1
